The results in this text go back to patent US20240252628A1 (ACCELERON PHARMA, published 2024).

The labels stand for the following.
B1: GDF11 (ligand, UniProt O95390 299-407, looked up)
chain: NLGLDCDEHSSESRCCRYPLTVDFEAFGWDWIIAPKRYKANYCSGQCEYMFMQKYPHTHLVQQANPRGSAGPCCTPTKMSPINMLYFNDKQQIIYGKIPGMVVDRCGCS
notes: also called BMP11

Test [1] addresses T1, ActRIIA-mFc (human, UniProt P27037 21-135).
T1 construct: not shown: minimal linker and mouse Fc domain
In words: SPR (Biacore), ligand amine-coupled on CM5 chip. As to the method:
GDF11 or activin A were immobilized on a Biacore™ CM5 chip using standard amine-coupling procedure. ActRIIA-hFc and ActRIIA-mFc proteins were loaded onto the system, and binding was measured. […] See FIG. 15A-B. Using a similar binding assay, ActRIIA-hFc was determined to have high to moderate affinity for other TGF-beta superfamily ligands including, for example, activin B, GDF8, BMP6, and BMP10. ActRIIA-mFc behaved similarly.
A general note: Surface plasmon resonance follows binding to a sensor surface in real time, without labels.

Test [2] has as its target T2, activin A (UniProt P08476 311-426).
T2 construct: The same holds for m2-m11
T2 sequence (looked up): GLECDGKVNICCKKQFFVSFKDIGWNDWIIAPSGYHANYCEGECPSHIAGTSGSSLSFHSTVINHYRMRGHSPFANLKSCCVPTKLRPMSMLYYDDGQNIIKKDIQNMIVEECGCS
In words: SPR (Biacore), anti-Fc capture of receptor. The procedure:
(§1) A Biacore™-based binding assay was used to compare ligand binding selectivity of the ActRIIB-Fc:ALK4-Fc heterodimeric complex described above with that of ActRIIB-Fc and ALK4-Fc homodimer complexes. The ActRIIB-Fc:ALK4-Fc heterodimer, ActRIIB-Fc homodimer, and ALK4-Fc homodimer were independently captured onto the system using an anti-Fc antibody. Ligands were injected and allowed to flow over the captured receptor protein. Results are summarized in the table below, in which ligand off-rates (kd) most indicative of effective ligand traps are denoted in bold.

The target in test [3] is T3, BMP9 (UniProt Q9UK05 320-429).
T3 construct: also called GDF2
T3 sequence (looked up): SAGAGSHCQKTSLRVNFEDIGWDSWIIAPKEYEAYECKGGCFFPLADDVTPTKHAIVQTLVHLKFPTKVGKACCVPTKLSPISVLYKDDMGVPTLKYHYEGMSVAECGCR
Kind of test: SPR (Biacore), anti-Fc capture of receptor. The procedure:
as §1

In test [4] the target is T4, BMP10 (UniProt O95393 317-424).
T4 sequence (looked up): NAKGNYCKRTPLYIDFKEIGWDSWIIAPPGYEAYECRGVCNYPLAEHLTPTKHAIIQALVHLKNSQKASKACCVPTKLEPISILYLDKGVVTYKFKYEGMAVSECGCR
In words: SPR (Biacore), anti-Fc capture of receptor. The procedure:
as §1

Test [5] deals with T5, activin B (UniProt P09529 293-407).
T5 sequence (looked up): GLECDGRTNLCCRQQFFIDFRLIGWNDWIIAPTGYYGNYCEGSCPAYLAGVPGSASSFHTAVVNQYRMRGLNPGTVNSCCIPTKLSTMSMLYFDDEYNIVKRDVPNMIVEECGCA
In words: SPR (Biacore), anti-Fc capture of receptor. As to the method: as §1

The target in test [6] is T6, GDF3 (UniProt Q9NR23 251-364).
T6 sequence (looked up): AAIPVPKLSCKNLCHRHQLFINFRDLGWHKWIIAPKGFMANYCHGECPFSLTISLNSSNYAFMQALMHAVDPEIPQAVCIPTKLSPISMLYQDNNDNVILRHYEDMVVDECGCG
Kind of test: SPR (Biacore), anti-Fc capture of receptor. As to the method:
as §1

Test [7] addresses T7, GDF8 (UniProt O14793 267-375).
T7 construct: also called myostatin
T7 sequence (looked up): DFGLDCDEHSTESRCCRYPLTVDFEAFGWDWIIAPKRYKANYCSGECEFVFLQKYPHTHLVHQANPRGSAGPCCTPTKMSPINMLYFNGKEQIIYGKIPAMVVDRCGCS
Kind of test: SPR (Biacore), anti-Fc capture of receptor. The procedure: as §1

Test [8] addresses B1. Kind of test: SPR (Biacore), anti-Fc capture of receptor. The procedure:
as §1

For test [9], the target named is T8, BMP6 (UniProt P22004 382-513, limits assumed).
T8 sequence (looked up): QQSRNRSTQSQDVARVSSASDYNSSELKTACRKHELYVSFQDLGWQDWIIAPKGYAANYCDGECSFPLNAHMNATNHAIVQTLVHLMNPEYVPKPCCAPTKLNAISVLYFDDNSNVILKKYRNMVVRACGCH
In words: SPR (Biacore), anti-Fc capture of receptor. The procedure:
as §1

Test [10] addresses T2, activin A. In words: SPR (Biacore), anti-Fc capture of receptor, 37 C. The procedure: (§2) A Biacore™-based binding assay was used to compare the ligand binding kinetics of an ActRIIB-Fc:ActRIIB(L79E)-Fc heterodimer with those of unmodified ActRIIB-Fc homodimer. Fusion proteins were captured onto the system using an anti-Fc antibody. Ligands were then injected and allowed to flow over the captured receptor protein at 37° C. Results are summarized in the table below, in which ligand off-rates (kd) most indicative of effective ligand traps are denoted in bold.

Test [11] has as its target T4, BMP10. In words: SPR (Biacore), anti-Fc capture of receptor, 37 C. As to the method:
as §2

T1 sequence (P27037 21-135): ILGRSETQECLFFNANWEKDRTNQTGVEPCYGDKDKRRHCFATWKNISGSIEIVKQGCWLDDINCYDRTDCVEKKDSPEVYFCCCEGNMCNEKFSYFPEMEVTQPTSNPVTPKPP

On to B1, for which the binding result in test [1] is reported as “binds”.

B2: ActRIIB-Fc:ALK4-Fc heterodimer (Fc fusion)
chain 1: GRGEAETRECIYYNANWELERTNQSGLERCEGEQDKRLHCYASWRNSSGTIELVKKGCWLDDFNCYDRQECVATEENPQVYFCCCEGNFCNERFTHLPEAGGPEVTYEPPPTAPTGGGTHTCPPCPAPELLGGPSVFLFPPKPKDTLMISRTPEVTCVVVDVSHEDPEVKFNWYVDGVEVHNAKTKPREEQYNSTYRVVSVLTVLHQDWLNGKEYKCKVSNKALPAPIEKTISKAKGQPREPQVYTLPPSRKEMTKNQVSLTCLVKGFYPSDIAVEWESNGQPENNYKTTPPVLKSDGSFFLYSKLTVDKSRWQQGNVFSCSVMHEALHNHYTQKSLSLSPGK
chain 2: SGPRGVQALLCACTSCLQANYTCETDGACMVSIFNLDGMEHHVRTCIPKVELVPAGKPFYCLSSEDLRNTHCCYTDYCNRIDLRVPSGHLKEPEHPSMWGPVETGGGTHTCPPCPAPELLGGPSVFLFPPKPKDTLMISRTPEVTCVVVDVSHEDPEVKFNWYVDGVEVHNAKTKPREEQYNSTYRVVSVLTVLHQDWLNGKEYKCKVSNKALPAPIEKTISKAKGQPREPQVYTLPPSREEMTKNQVSLTCLVKGFYPSDIAVEWESNGQPENNYDTTPPVLDSDGSFFLYSDLTVDKSRWQQGNVFSCSVMHEALHNHYTQKSLSLSPG
notes: the receptor domains are the same in all; also called ALK4-Fc:ActRIIB-Fc heterodimer; ActRIIB-Fc:ALK4-Fc heterodimeric complex
Consider B2, for which the dissociation constant Kd – broadly, a measure of binding affinity in units of concentration – in test [2] came out at 12 pM; in [3], 3400 pM; in test [4], 74 pM; in [5], 6 pM; in test [6], 4900 pM; in [7], 550 pM. Also, the dissociation constant (Kd) in test [8] turned out to be 3 pM; in test [9], 2700 pM. Also, the off-rate constant (koff) (as a rule, the rate constant with which the complex falls apart) in test [2] was 0.00015 s⁻¹; in [4], 0.0041 s⁻¹; in [5] it was 4e-05 s⁻¹; in test [6], 0.017 s⁻¹; in test [7], 0.00021 s⁻¹; in test [8], 0.00011 s⁻¹. In [9], the koff is 0.0055 s⁻¹. For the same molecule, the kon (usually the second-order rate constant of association) in [2] came to 1.3e+07 M⁻¹ s⁻¹; in test [4] it was 5.6e+07 M⁻¹ s⁻¹; in test [5], 7.1e+06 M⁻¹ s⁻¹; in [6], 3.4e+06 M⁻¹ s⁻¹; in test [7] it was 390000 M⁻¹ s⁻¹; in test [8] it was 3.8e+07 M⁻¹ s⁻¹. For the same molecule, the kon in [9] is 2e+06 M⁻¹ s⁻¹.

B3: ActRIIB-Fc:ActRIIB(L79E)-Fc heterodimer (Fc fusion)
chain 1: GRGEAETRECIYYNANWELERTNQSGLERCEGEQDKRLHCYASWRNSSGTIELVKKGCWEDDFNCYDRQECVATEENPQVYFCCCEGNFCNERFTHLPEAGGPEVTYEPPPTAPTGGGTHTCPPCPAPELLGGPSVFLFPPKPKDTLMISRTPEVTCVVVDVSHEDPEVKFNWYVDGVEVHNAKTKPREEQYNSTYRVVSVLTVLHQDWLNGKEYKCKVSNKALPAPIEKTISKAKGQPREPQVYTLPPSREEMTKNQVSLTCLVKGFYPSDIAVEWESNGQPENNYDTTPPVLDSDGSFFLYSDLTVDKSRWQQGNVFSCSVMHEALHNHYTQKSLSLSPG
chain 2: GRGEAETRECIYYNANWELERTNQSGLERCEGEQDKRLHCYASWRNSSGTIELVKKGCWLDDFNCYDRQECVATEENPQVYFCCCEGNFCNERFTHLPEAGGPEVTYEPPPTAPTGGGTHTCPPCPAPELLGGPSVFLFPPKPKDTLMISRTPEVTCVVVDVSHEDPEVKFNWYVDGVEVHNAKTKPREEQYNSTYRVVSVLTVLHQDWLNGKEYKCKVSNKALPAPIEKTISKAKGQPREPQVYTLPPSRKEMTKNQVSLTCLVKGFYPSDIAVEWESNGQPENNYKTTPPVLKSDGSFFLYSKLTVDKSRWQQGNVFSCSVMHEALHNHYTQKSLSLSPGK
notes: the receptor domains are the same in both; also called ActRIIB-Fc:ActRIIB(L79E)-Fc heteromer
Regarding B3, the “fold faster off-rate than ActRIIB-Fc homodimer” value in test [10] and in [11] was around 10 fold throughout.
